Test [1] deals with T1, recombinant human CD30L (human, UniProt P32971 63-234).
T1 construct: Purified recombinant protein of ELISA, BLI, Carterra and KinExA; also called rhCD30L; huCD30L
T1 sequence (looked up): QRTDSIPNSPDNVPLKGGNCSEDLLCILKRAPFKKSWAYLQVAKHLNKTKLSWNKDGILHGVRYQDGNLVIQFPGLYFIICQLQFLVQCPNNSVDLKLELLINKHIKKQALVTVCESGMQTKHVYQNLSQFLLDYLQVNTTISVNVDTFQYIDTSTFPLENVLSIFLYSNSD
In words: KinExA, Fab in solution. (In general: A kinetic exclusion assay measures how much of one partner remains free in solution.)
Excerpt: (§1) For each experiment, CD30L antigen is titrated in a background of the Fab and allowed to reach equilibrium. The solutions are then briefly exposed to the solid phase and a portion of free Fab is captured. The captured Fab is then labeled with a fluorescent secondary molecule. The short contact time with the solid phase is less than the time needed for dissociation of the pre-formed complex in solution, thus competition between the solution and the solid phase titrated binding partner is kinetically excluded.
(§2) The signals generated from the captured Fab, which are directly proportional to the concentration of free Fab in the equilibrated samples, are used to determine the KD value. The KinExA Pro software performs a least squares analysis on the measured data to fit optimal solution for the KD and the activity of the Fab to a curve representative of a 1:1 reversible bi-molecular interaction.

Test [2] deals with T1, recombinant human CD30L. Briefly: KinExA, calculated as KD x kon.
Description: (§3) To more precisely define and compare the binding affinities (dissociation equilibrium constant, KD), the association rate constant (on rate, kₒₙ), and the dissociation rate constant (off rate, koff), the kinetic exclusion assay (KinExA) was performed. KinExA measures the equilibrium binding affinity and kinetics between unmodified binding molecules in solution. For affinity analysis, the equilibrium dissociation constant, KD, is experimentally determined and reflects the strength of the binding interaction. The rate of association, kₒₙ, is also experimentally determined, while the rate of dissociation, koff, is calculated based on the equation: koff=Kd×kₒₙ.
Test [3] has as its target T2, cynomolgus CD30L expressed on HEK293 cells (cynomolgus, UniProt A0A7N9CVX7 1-234).
T2 sequence: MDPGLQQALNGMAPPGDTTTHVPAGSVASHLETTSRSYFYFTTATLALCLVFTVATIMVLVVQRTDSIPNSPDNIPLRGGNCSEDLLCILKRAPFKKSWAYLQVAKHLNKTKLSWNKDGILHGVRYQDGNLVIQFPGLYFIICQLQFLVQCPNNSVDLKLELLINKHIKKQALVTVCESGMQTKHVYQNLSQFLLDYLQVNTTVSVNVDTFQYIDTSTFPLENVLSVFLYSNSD
In words: cell-based or functional assay.

Test [4] concerns the target T3, human CD30L expressed on B16 cells (human, UniProt P32971 1-234).
T3 sequence (looked up): T2 sequence with T19A, T20M, E32G, F41L, I75V, R78K, V204I, V227I
Briefly: cell-based or functional assay.

For test [5], the target named is T2, cynomolgus CD30L expressed on HEK293 …. In words: flow cytometry, blocking of CD30-Fc on HEK293-cyCD30L cells; competitor CD30-Fc.
For test [6], the target named is T1, recombinant human CD30L. In words: ELISA, binding to rhCD30L (OD 450 nm).
For test [7], the target named is T3, human CD30L expressed on B16 cells. In words: cell-based or functional assay. The source holds these as a separate data set.
Test [8] concerns the target T1, recombinant human CD30L. Briefly: ELISA, Binding to CD30L, immobilized human CD30L (Absorbance 450 nm). In general terms: An ELISA detects its analyte on a solid surface through an enzyme-linked reagent.
For test [9], the target named is T1, recombinant human CD30L. In words: ELISA, binding to purified rhCD30L.
The target in test [10] is T2, cynomolgus CD30L expressed on HEK293 …. Briefly: flow cytometry, binding to HEK293-cyCD30L cells. (In general: In flow cytometry, cells or beads pass a laser one at a time.)
For test [11], the target named is T1, recombinant human CD30L. Briefly: ELISA, blocking of CD30-Fc binding to huCD30L (OD 450 nm).
Test [12] concerns the target T1, recombinant human CD30L. Briefly: ELISA, Neutralization of CD30-Fc binding to immobilized human CD30L (Absorbance 450 nm).
The target of test [13] is T3, human CD30L expressed on B16 cells. In words: cell-based or functional assay. This is another data set of the same source.
For test [14] the target is unchanged. In words: flow cytometry, blocking of CD30-Fc on B16-huCD30L cells; competitor CD30-Fc.
The target of test [15] is T4, recombinant cynomolgus CD30L (cynomolgus, UniProt A0A7N9CVX7 63-234).
T4 construct: Purified recombinant protein; also called rcyCD30L; cyno CD30L
T4 sequence: T1 sequence (looked up) with V13I, K16R, I142V, I165V
Briefly: ELISA, blocking of CD30-Fc on rcyCD30L; competitor CD30-Fc.

Test [16] has as its target T1, recombinant human CD30L. Briefly: ELISA, blocking of CD30-Fc on huCD30L; competitor CD30-Fc.
The target of test [17] is T2, cynomolgus CD30L expressed on HEK293 …. Briefly: flow cytometry, Cell Binding to HEK293-cyCD30L (MFI).
Test [18] deals with T3, human CD30L expressed on B16 cells. Briefly: flow cytometry, B16-huCD30L/CD30-Fc Neutralization: blocking of CD30-Fc binding to B16-huCD30L cells.
The target of test [19] is T4, recombinant cynomolgus CD30L. Briefly: ELISA, binding to purified rcyCD30L.
Test [20] shares this target. Briefly: ELISA, Binding to CD30L, immobilized cyno CD30L (Absorbance 450 nm).
The target is the same in test [21]. Briefly: ELISA, Neutralization of CD30-Fc binding to immobilized cyno CD30L (Absorbance 450 nm).
The target of test [22] is T2, cynomolgus CD30L expressed on HEK293 …. Briefly: flow cytometry, HEK293-cyCD30L/CD30-Fc Neutralization: blocking of CD30-Fc binding to HEK293-cyCD30L cells.
For test [23], the target named is T3, human CD30L expressed on B16 cells. Briefly: flow cytometry, binding to B16-rhCD30L cells.
Test [24] deals with T4, recombinant cynomolgus CD30L. In words: KinExA, calculated as KD x kon.
Description: as §3
A KD analysis requires immobilization of one interaction partner to a solid phase which is then used as a probe to capture the other interaction partner, the constant binding partner (Fab). For each experiment, CD30L antigen is titrated in a background of the Fab and allowed to reach equilibrium. The solutions are then briefly exposed to the solid phase and a portion of free Fab is captured. The captured Fab is then labeled with a fluorescent secondary molecule. The short contact time with the solid phase is less than the time needed for dissociation of the pre-formed complex in solution, thus competition between the solution and the solid phase titrated binding partner is kinetically excluded.
The target in test [25] is T1, recombinant human CD30L. In words: KinExA, Fab in solution. This is another data set of the same source.
Excerpt: as §1, §2
For test [26], the target named is T1, recombinant human CD30L. Briefly: KinExA, calculated as KD x kon. This is another data set of the same source.
Description: as §3
The target in test [27] is T4, recombinant cynomolgus CD30L. Briefly: KinExA, Fab in solution.
Excerpt: as §1, §2
The target of test [28] is T5, recombinant human CD30L protein (human, UniProt P32971 63-234).
T5 construct: also called rhCD30L; huCD30L (ELISA)
T5 sequence (looked up): T1 sequence (looked up)
Briefly: KinExA, Fab, human CD30L; reference Fab of Ref1.
Excerpt: as §1, §2

The target of test [29] is T6, human CD30L expressed on cells (human, UniProt P32971 1-234).
T6 construct: also called huCD30L; B16-huCD30L
T6 sequence: T2 sequence with T19A, T20M, E32G, F41L, I75V, R78K, V204I, V227I
In words: flow cytometry, blocking of CD30-Fc binding to human CD30L on cells; reference Ref1.

For test [30], the target named is T7, CDH13 (human, UniProt P55290 139-693).
T7 construct: whole, on cells; also called hit #16
T7 sequence (looked up): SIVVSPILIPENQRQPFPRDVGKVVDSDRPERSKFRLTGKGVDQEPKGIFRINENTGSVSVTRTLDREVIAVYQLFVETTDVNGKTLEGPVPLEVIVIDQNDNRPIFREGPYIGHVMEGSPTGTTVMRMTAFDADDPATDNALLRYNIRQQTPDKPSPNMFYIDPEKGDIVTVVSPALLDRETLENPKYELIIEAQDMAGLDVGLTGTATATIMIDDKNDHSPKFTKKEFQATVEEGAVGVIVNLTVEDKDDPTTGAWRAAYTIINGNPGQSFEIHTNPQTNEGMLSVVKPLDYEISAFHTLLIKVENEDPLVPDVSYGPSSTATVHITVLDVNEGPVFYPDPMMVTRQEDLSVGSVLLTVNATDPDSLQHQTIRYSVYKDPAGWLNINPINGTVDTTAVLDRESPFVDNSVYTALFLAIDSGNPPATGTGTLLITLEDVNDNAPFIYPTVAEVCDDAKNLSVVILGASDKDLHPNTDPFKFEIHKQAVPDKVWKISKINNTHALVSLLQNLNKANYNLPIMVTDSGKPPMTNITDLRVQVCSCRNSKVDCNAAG
In words: cell microarray, library and confirmation screens.

In test [31] the target is T8, cynomolgus CD30L expressed on cells (cynomolgus, UniProt A0A7N9CVX7 1-234).
T8 construct: whole, on cells; also called cyCD30L; HEK293-cyCD30L
T8 sequence: T2 sequence
In words: flow cytometry, blocking of CD30-Fc binding to cyno CD30L on cells; reference Ref1.

Where a chain is given by its changes, count along the chain named. Like-named read-outs stand apart in the source and are kept apart here.

In general, Kd refers to the constant that tells how readily two partners part at equilibrium. The kon is the rate constant with which the complex forms. Usually koff stands for a measure of how fast the partners let go of each other. The IC50 is the concentration at which inhibition is half-maximal. The EC50 (read off the curve) is the concentration needed to bring the measured effect to its halfway point. Usually EC50 stands for the concentration at which the effect is half-maximal.

B1: Fab of the reference 1 (ref1) anti-CD30L (Fab, V domains shown)
VH: QVQLQESGPGLVKPSETLSLTCTVSGGSISSYIWSWIRQPAGKGLEWIGRIYASGNTNYNPSLKSRVTISVDTSKNQFSLKLSSMTAADTAVYYCARDYRVAGTYYYYYGLDVWGQGTTVTVSS
VL: QSALTQPASVSGSPGQSITISCTGTSSDVGVYDYVSWYQQHPGKAPKLMIYEVSNRPSGVSNRFSGSKSGNTASLTISGLQTEDEADYYCSSYTSRSTWVFGGGTKLTVL
notes: Fab
In the case of B1, in [1], the Kd came to 0.377 nM and the kon was 937000 M⁻¹ s⁻¹. Further, in [2], the koff was 0.000353 s⁻¹.

B2: anti-CD30L antibody clone 2 germlined (antibody, V domains shown)
VH: EVQLVESGGGLVQPGRSLRLSCAASGFNFDDYAMHWVRQAPGKGLEWVSGISWRSGNIGYADSVKGRFTISRDNAKNSLYLQMNSLRAEDTALYYCAKDKGIGFNWNYEGFDYWGQGTLVTVSS
VL: DIQMTQSPSSLSASVGDRVTITCRASQGISNHLAWFQQKPGKAPKSLIYAASSLQSGVPSRFSGSGSGTDFTLTISSLQPEDFATYYCQQYVTYPLTFGGGTKVEIK
notes: also called germlined clone 2
On to B2, for which the “Inhibition of IL-8 release in a dual cell assay (HEK293-cyCD30L cells + K299 cells) IC50” value in [3] turned out to be 0.41 nM. Moreover, in test [4], the “Inhibition of IL-8 release in a dual cell assay (B16-huCD30L cells + K299 cells) IC50” value is 0.89 nM. The IC50 in test [5] was determined as 0.34 nM; in test [14], 0.67 nM; in test [15], 1.53 nM; in [16], 1.92 nM. Moreover, the “EC50 (read off the curve)” value in test [6] is ~0.1 nM; in test [8], ~0.03 nM; in test [17] it was ~0.3 nM; in test [20], ~0.03 nM. The “IC50 (read off the curve), IL-8 release, Dual Assay K299 + B16-huCD30L” value in [7] is ~1 nM. Further, the 50% effective concentration (EC50) came to 0.03 nM in test [9], 0.33 nM in test [10], 0.05 nM in [19] and 0.64 nM in [23]. The “IC50 (read off the curve)” value in test [11] was ~2 nM; in test [12] it was ~2 nM; in [18], ~0.4 nM; in test [21] it was ~2 nM; in test [22], ~0.3 nM. The “IC50 (read off the curve), IL-8 release, dual cell assay (B16-huCD30L cells + K299 cells)” value in test [13] is ~1 nM.

B3: Fab of clone 2 germlined (Fab, V domains shown)
VH: B2 VH
VL: B2 VL
notes: Fab; also called Fab of a representative anti-CD30L, clone 2 germlined
With B3, the values for the koff in test [24] and in test [26] were 0.000378 s⁻¹ and 0.000141 s⁻¹, respectively. The Kd in test [25] came to 0.0905 nM; in test [27], 0.122 nM. Further, the association rate constant (kon) in test [25] came to 1.55e+06 M⁻¹ s⁻¹; in test [27], 3.1e+06 M⁻¹ s⁻¹.

B4: Fab of clone 2 germlined (Fab, V domains shown)
VH: B2 VH
VL: B2 VL
notes: Fab used in KinExA; also called Fab of a representative anti-CD30L, clone 2 germlined
Consider B4, for which, in test [28], the “fold difference in KD against the reference 1 anti-CD30L” value came out at 4.2 fold.

B5: anti-CD30L antibody clone 2 germlined with IgG1 constant region SEQ ID NO: 502 (antibody)
heavy: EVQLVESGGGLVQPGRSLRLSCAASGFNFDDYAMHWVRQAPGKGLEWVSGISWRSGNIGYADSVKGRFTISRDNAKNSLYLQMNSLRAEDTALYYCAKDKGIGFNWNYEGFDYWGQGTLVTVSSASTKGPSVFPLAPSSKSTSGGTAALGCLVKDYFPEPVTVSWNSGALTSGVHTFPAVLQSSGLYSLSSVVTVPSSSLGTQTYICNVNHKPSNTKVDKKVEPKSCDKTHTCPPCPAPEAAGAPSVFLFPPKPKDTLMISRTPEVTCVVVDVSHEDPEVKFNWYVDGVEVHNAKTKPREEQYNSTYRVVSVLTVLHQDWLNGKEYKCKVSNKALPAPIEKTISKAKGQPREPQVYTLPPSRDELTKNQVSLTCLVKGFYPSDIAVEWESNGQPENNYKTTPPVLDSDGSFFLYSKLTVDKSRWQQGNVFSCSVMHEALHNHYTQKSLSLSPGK
VL: B2 VL
notes: also called germlined clone 2; copies: 2 + 2
For B5, the “fold better IC50 than reference 1 (ref1) anti-CD30L” value in [29] came out at 2.74 fold; in test [31], 2.13 fold. In addition, the binding result in test [30] was “no binding (tested: 5 µg/mL)”.

The record behind these values is patent publication US20240254246A1 (PROMETHEUS BIOSCIENCES, published 2024).
